Experimental data published in PMC10577934, “Semi-rational engineering an aldo–keto reductase for stereocomplementary reduction of α-keto amide compounds” (Microbial Cell Factories, 2023).

B1: iolS (Bacillus subtilis subsp. subtilis str. 168) (protein)
chain: MKKAKLGKSDLQVFPIGLGTNAVGGHNLYPNLNEETGKELVREAIRNGVTMLDTAYIYGIGRSEELIGEVLREFNREDVVIATKAAHRKQGNDFVFDNSPDFLKKSVDESLKRLNTDYIDLFYIHFPDEHTPKDEAVNALNEMKKAGKIRSIGVSNFSLEQLKEANKDGLVDVLQGEYNLLNREAEKTFFPYTKEHNISFIPYFPLVSGLLAGKYTEDTTFPEGDLRNEQEHFKGERFKENIRKVNKLAPIAEKHNVDIPHIVLAWYLARPEIDILIPGAKRADQLIDNIKTADVTLSQEDISFIDKLFA
notes: pET28a, His-tagged, expressed in E. coli BL21(DE3), Ni-NTA purified
B2: iolS (Bacillus subtilis subsp. subtilis str. 168; F126L/I57F) (protein)
chain: MKKAKLGKSDLQVFPIGLGTNAVGGHNLYPNLNEETGKELVREAIRNGVTMLDTAYFYGIGRSEELIGEVLREFNREDVVIATKAAHRKQGNDFVFDNSPDFLKKSVDESLKRLNTDYIDLFYIHLPDEHTPKDEAVNALNEMKKAGKIRSIGVSNFSLEQLKEANKDGLVDVLQGEYNLLNREAEKTFFPYTKEHNISFIPYFPLVSGLLAGKYTEDTTFPEGDLRNEQEHFKGERFKENIRKVNKLAPIAEKHNVDIPHIVLAWYLARPEIDILIPGAKRADQLIDNIKTADVTLSQEDISFIDKLFA
notes: as for B1
B3: iolS (Bacillus subtilis subsp. subtilis str. 168; F126L) (protein)
chain: MKKAKLGKSDLQVFPIGLGTNAVGGHNLYPNLNEETGKELVREAIRNGVTMLDTAYIYGIGRSEELIGEVLREFNREDVVIATKAAHRKQGNDFVFDNSPDFLKKSVDESLKRLNTDYIDLFYIHLPDEHTPKDEAVNALNEMKKAGKIRSIGVSNFSLEQLKEANKDGLVDVLQGEYNLLNREAEKTFFPYTKEHNISFIPYFPLVSGLLAGKYTEDTTFPEGDLRNEQEHFKGERFKENIRKVNKLAPIAEKHNVDIPHIVLAWYLARPEIDILIPGAKRADQLIDNIKTADVTLSQEDISFIDKLFA
notes: as for B1
B4: iolS (Bacillus subtilis subsp. subtilis str. 168; N21A) (protein)
chain: MKKAKLGKSDLQVFPIGLGTAAVGGHNLYPNLNEETGKELVREAIRNGVTMLDTAYIYGIGRSEELIGEVLREFNREDVVIATKAAHRKQGNDFVFDNSPDFLKKSVDESLKRLNTDYIDLFYIHFPDEHTPKDEAVNALNEMKKAGKIRSIGVSNFSLEQLKEANKDGLVDVLQGEYNLLNREAEKTFFPYTKEHNISFIPYFPLVSGLLAGKYTEDTTFPEGDLRNEQEHFKGERFKENIRKVNKLAPIAEKHNVDIPHIVLAWYLARPEIDILIPGAKRADQLIDNIKTADVTLSQEDISFIDKLFA
notes: as for B1
B5: iolS (Bacillus subtilis subsp. subtilis str. 168; F126A/N21A) (protein)
chain: MKKAKLGKSDLQVFPIGLGTAAVGGHNLYPNLNEETGKELVREAIRNGVTMLDTAYIYGIGRSEELIGEVLREFNREDVVIATKAAHRKQGNDFVFDNSPDFLKKSVDESLKRLNTDYIDLFYIHAPDEHTPKDEAVNALNEMKKAGKIRSIGVSNFSLEQLKEANKDGLVDVLQGEYNLLNREAEKTFFPYTKEHNISFIPYFPLVSGLLAGKYTEDTTFPEGDLRNEQEHFKGERFKENIRKVNKLAPIAEKHNVDIPHIVLAWYLARPEIDILIPGAKRADQLIDNIKTADVTLSQEDISFIDKLFA
notes: as for B1
B6: iolS (Bacillus subtilis subsp. subtilis str. 168; I57F) (protein)
chain: MKKAKLGKSDLQVFPIGLGTNAVGGHNLYPNLNEETGKELVREAIRNGVTMLDTAYFYGIGRSEELIGEVLREFNREDVVIATKAAHRKQGNDFVFDNSPDFLKKSVDESLKRLNTDYIDLFYIHFPDEHTPKDEAVNALNEMKKAGKIRSIGVSNFSLEQLKEANKDGLVDVLQGEYNLLNREAEKTFFPYTKEHNISFIPYFPLVSGLLAGKYTEDTTFPEGDLRNEQEHFKGERFKENIRKVNKLAPIAEKHNVDIPHIVLAWYLARPEIDILIPGAKRADQLIDNIKTADVTLSQEDISFIDKLFA
notes: as for B1

Substrate: O=C(Nc1ccccc1)C(=O)c1ccccc1
Assay: initial velocity by HPLC of product, nonlinear Michaelis-Menten fit
Format: biochemical, Bacillus subtilis
Conditions: NAD(P)H cofactor, potassium phosphate 100 mM pH 7.0, 30 °C
Text: initial velocity by HPLC of product, nonlinear Michaelis-Menten fit on iolS

**Q.** For B1, which Km is on record?
**A.** 1810 ± 130 µM

**Q.** What about the kcat of the same protein?
**A.** 3.53 ± 0.12 s⁻¹

**Q.** What about the kcat/Km of the same protein?
**A.** 1950 M⁻¹ s⁻¹

**Q.** For B2, which Km is on record?
**A.** 1710 ± 110 µM

**Q.** What about the kcat of the same protein?
**A.** 4.32 ± 0.14 s⁻¹

**Q.** And the kcat/Km?
**A.** 2510 M⁻¹ s⁻¹

**Q.** For B3, which Km is on record?
**A.** 1550 ± 220 µM

**Q.** And the kcat?
**A.** 3.81 ± 0.13 s⁻¹

**Q.** And the kcat/Km?
**A.** 2450 M⁻¹ s⁻¹

**Q.** B4 was tested. Which Km did it give?
**A.** 1160 ± 160 µM

**Q.** And the kcat?
**A.** 4.1 ± 0.12 s⁻¹

**Q.** And the kcat/Km?
**A.** 3530 M⁻¹ s⁻¹

**Q.** How did the Km turn out when B5 was run?
**A.** 1650 ± 120 µM

**Q.** What about the kcat of the same protein?
**A.** 6.4 ± 0.25 s⁻¹

**Q.** What about the kcat/Km of the same protein?
**A.** 3880 M⁻¹ s⁻¹

**Q.** Which results are given for B6?
**A.** Km: 1720 ± 130 µM; kcat: 3.96 ± 0.23 s⁻¹; kcat/Km: 2320 M⁻¹ s⁻¹
